# Experimental data: IntAct's records for PubMed 18256029
# B1: Programmed cell death protein 6 (Homo sapiens), O75340 (parent)
# chain: MAAYSYRPGPGAGPGPAAGAALPDQSFLWNVFQRVDKDRSGVISDTELQQALSNGTWTPFNPVTVRSIISMFDRENKAGVNFSEFTGVWKYITDWQNVFRTYDRDNSGMIDKNELKQALSGFGYRLSDQFHDILIRKFDRQGRGQIAFDDFIQGCIVLQRLTDIFRRYDTDQDGWIQVSYEQYLSMVFSIV
# partner: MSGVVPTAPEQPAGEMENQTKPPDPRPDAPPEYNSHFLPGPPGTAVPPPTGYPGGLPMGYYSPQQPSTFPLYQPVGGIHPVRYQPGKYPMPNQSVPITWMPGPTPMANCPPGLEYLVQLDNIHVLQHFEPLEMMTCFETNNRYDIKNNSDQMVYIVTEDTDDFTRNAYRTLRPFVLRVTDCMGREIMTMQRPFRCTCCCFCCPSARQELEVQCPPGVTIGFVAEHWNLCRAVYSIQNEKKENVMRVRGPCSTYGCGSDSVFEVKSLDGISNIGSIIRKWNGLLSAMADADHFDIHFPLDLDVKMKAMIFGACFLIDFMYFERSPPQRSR
# B2: Programmed cell death protein 6 (Homo sapiens), O75340 (parent)
# chain: B1 chain
# partner: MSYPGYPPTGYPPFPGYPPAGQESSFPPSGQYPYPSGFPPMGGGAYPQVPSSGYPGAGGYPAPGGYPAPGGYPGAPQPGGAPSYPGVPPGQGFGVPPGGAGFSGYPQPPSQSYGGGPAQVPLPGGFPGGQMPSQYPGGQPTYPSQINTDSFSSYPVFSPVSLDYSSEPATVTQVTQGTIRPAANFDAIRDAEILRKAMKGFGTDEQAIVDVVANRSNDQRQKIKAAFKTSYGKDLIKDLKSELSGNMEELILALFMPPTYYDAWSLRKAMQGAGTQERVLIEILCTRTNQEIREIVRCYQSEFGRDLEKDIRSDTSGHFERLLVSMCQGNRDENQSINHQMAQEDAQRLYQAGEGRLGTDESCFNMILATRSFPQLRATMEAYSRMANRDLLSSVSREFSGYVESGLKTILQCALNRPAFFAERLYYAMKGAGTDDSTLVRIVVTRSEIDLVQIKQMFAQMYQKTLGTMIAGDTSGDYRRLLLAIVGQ
# B3: Programmed cell death protein 6 (Homo sapiens), O75340 (parent)
# chain: B1 chain
# B4: Programmed cell death protein 6 (Homo sapiens), O75340 (parent)
# chain: B1 chain
# partner: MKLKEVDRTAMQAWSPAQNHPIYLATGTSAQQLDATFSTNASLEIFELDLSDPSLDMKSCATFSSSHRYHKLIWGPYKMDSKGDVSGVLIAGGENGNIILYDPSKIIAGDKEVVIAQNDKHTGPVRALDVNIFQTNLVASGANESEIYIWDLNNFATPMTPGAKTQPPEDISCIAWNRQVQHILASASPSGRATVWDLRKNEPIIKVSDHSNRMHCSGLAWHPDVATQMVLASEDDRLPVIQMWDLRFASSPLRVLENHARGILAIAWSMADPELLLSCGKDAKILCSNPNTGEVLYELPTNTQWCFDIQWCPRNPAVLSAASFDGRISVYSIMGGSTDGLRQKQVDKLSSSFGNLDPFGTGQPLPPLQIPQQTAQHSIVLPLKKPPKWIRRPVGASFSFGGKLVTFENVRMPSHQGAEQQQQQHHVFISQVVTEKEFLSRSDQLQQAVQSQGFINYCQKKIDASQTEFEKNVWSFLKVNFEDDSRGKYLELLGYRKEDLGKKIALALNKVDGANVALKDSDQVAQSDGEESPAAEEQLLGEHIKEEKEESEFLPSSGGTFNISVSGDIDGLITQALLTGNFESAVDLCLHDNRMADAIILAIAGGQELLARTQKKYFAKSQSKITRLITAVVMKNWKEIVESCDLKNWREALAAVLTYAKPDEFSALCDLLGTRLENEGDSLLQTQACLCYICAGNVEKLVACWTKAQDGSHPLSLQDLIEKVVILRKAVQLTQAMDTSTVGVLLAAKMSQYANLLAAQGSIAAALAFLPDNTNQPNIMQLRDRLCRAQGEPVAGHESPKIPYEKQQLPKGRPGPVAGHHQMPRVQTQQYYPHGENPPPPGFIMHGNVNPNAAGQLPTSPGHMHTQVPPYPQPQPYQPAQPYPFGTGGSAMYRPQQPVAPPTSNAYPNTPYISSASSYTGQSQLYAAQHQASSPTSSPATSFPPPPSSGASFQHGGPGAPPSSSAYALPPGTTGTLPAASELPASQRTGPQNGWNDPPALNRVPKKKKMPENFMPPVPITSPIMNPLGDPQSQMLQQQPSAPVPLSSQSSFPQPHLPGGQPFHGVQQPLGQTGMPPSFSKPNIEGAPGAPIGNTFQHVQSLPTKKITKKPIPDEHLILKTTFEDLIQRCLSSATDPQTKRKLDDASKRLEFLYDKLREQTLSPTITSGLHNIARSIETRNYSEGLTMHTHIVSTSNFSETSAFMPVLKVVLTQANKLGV
# Variants of: B1
# Conditions: with pls4_human PLSCR4, Q9NRQ2
row,Variant,effect of a mutation on the interaction
1,E47A;E114A,decreasing interaction

# Variants of: B2
# Conditions: with anxa7_human ANXA7, P20073
row,Variant,effect of a mutation on the interaction
1,Y180A,disrupting interaction
2,W95A,disrupting interaction
3,F60A,disrupting interaction
4,W57A,decreasing interaction
5,Y91A,disrupting interaction

# Variants of: B3
# Conditions: with pls3_human PLSCR3, Q9NRY6
# Chain of pls3_human PLSCR3, Q9NRY6 (Q9NRY6 whole entry): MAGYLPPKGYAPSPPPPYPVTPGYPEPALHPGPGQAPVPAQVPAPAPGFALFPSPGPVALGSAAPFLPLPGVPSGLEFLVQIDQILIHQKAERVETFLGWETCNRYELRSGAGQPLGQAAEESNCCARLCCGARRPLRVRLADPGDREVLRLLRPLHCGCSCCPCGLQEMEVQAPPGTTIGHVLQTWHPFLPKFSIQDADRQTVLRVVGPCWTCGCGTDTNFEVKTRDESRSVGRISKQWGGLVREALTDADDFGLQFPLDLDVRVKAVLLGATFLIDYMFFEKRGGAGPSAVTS
row,Variant,effect of a mutation on the interaction
1,F60A,disrupting interaction
2,W95A,disrupting interaction
3,W57A,decreasing interaction
4,Y91A,disrupting interaction
5,Y180A,disrupting interaction

# Variants of: B3
# Conditions: with pdc6i_human PDCD6IP
row,Variant,effect of a mutation on the interaction
1,F60A,disrupting interaction
2,W95A,disrupting interaction
3,W57A,decreasing interaction
4,Y91A,disrupting interaction
5,Y180A,disrupting interaction

# Variants of: B3
# Conditions: with anx11_human ANXA11, P50995
# Chain of anx11_human ANXA11, P50995 (P50995 whole entry): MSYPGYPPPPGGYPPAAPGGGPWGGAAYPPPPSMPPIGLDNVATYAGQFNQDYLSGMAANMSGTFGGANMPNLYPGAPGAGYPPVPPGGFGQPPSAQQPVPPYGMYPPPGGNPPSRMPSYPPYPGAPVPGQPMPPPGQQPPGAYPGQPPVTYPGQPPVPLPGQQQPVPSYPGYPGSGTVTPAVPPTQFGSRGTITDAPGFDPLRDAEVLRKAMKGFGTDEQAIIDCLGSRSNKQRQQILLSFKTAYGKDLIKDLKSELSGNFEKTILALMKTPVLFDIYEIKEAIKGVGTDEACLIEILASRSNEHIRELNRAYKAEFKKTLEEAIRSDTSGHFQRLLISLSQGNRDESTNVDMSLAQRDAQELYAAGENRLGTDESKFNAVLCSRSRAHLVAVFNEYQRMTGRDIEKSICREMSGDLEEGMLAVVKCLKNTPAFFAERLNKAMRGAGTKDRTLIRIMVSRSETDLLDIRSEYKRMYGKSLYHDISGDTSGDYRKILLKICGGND
row,Variant,effect of a mutation on the interaction
1,F60A,disrupting interaction
2,W95A,disrupting interaction
3,W57A,decreasing interaction
4,Y91A,disrupting interaction
5,Y180A,disrupting interaction

# Variants of: B3
# Conditions: with ts101_human TSG101, Q99816
# Chain of ts101_human TSG101, Q99816 (Q99816 whole entry): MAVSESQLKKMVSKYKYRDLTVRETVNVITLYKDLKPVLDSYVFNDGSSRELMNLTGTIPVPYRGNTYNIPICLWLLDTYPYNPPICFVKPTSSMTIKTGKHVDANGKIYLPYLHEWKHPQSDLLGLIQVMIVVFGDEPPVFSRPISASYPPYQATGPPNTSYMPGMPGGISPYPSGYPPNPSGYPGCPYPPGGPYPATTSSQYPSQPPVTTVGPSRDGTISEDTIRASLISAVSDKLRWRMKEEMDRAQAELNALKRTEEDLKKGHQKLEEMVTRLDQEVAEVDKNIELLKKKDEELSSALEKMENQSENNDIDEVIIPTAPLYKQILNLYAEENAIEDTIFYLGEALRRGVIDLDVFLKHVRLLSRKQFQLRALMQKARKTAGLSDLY
row,Variant,effect of a mutation on the interaction
1,W95A,disrupting interaction
2,Y180A,disrupting interaction

# Variants of: B3
# Conditions: with pls3_human PLSCR3, Q9NRY6
# Remark: another data set of the same source
row,Variant,effect of a mutation on the interaction
1,E47A;E114A,decreasing interaction

# Variants of: B4
# Conditions: with sc31a_human SEC31A
row,Variant,effect of a mutation on the interaction
1,F60A,disrupting interaction
